Laboratory results as given in publication doi:10.1101/2020.06.08.118984 (bioRxiv, 2020).

Target: the molecule itself
Experiment: crystal structure

B1: mouse TBPL2 core domain (TBPL2^C) (domain or fragment)
chain: SGIVPQLQNVVSTANLACKLDLRKIALNAKNTEYNPKRFAAVIMRIREPRTTALIFSSGKVVCTGAKSEEESRLAARKYARVVQKLGFPVRFFNFKIQNMVGSCDVKFPIRLEILALTHRQFSSSYEPELFPGLIYKMVKPQVVLLIFASGKVVLTGAKERSEIYEAFENMYPILESFKK
- stoichiometry N: 2
